Two molecules from publication PMC8113886, “The Rid family member RutC of Escherichia coli is a 3-aminoacrylate deaminase” (The Journal of Biological Chemistry, 2021) can be followed below.

One data set concerns the target T1, RidA (Salmonella enterica, UniProt Q7CP78).
T1 construct: full-length RidA; purification and tag not described here
T1 sequence (Q7CP78 1-128): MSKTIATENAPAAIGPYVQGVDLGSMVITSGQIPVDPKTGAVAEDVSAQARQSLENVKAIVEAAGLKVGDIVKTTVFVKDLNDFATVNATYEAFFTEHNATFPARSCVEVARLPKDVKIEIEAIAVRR
The data set can be described thus: semicarbazone competition assay, absorbance at […] nm. It is filed as biochemical. The note with it: imine generated in situ by L-amino acid oxidase from 10 mM L-methionine; 10 uM RidA, 50 mM potassium pyrophosphate pH 8.7, 23 °C.

Substrate in the data set “purified protein”: NC=CC(=O)O
The data set can be described thus: purified protein. The note with it: 3-AA generated in situ by 5 uM RutB, varied concentration is ureidoacrylate, not 3-AA, spontaneous deamination not subtracted, 3 uM RutC, 40 mM Tris-HCl pH 8.2, 23 °C. The class given is biochemical, Escherichia coli.

Regarding `CSCCC(=N)C(=O)O` [imino derivative of methionine], the “semicarbazone competition assay, absorbance at 248 nm” value at RidA is “RidA showed activity primarily on the imino derivatives of methionine and leucine”.

B1: RutC (Escherichia coli K-12) (protein)
chain: MPKSVIIPAGSSAPLAPFVPGTLADGVVYVSGTLAFDQHNNVLFADDPKAQTRHVLETIRKVIETAGGTMADVTFNSIFITDWKNYAAINEIYAEFFPGDKPARFCIQCGLVKPDALVEIATIAHIAK
Turning to B1, in the data set “purified protein”, the Km (as a rule, the substrate concentration at which the rate is half of its maximum) was 9.1 ± 1.9 mM; the Vmax is on record as 31.9 ± 3.9 nmoles of NADPH consumed min^-1; the kcat (usually the maximal rate divided by the concentration of active sites) came out at 0.867 s⁻¹.
